Sequences and labels used below:
T1: Full-length cynomolgus monkey PSMA (TSC308), on cells (cynomolgus monkey, UniProt Q04609 1-750 (human entry))
T1 construct: also called cyno PSMA; CHOK1SV/cynoPSMA
T1 chain: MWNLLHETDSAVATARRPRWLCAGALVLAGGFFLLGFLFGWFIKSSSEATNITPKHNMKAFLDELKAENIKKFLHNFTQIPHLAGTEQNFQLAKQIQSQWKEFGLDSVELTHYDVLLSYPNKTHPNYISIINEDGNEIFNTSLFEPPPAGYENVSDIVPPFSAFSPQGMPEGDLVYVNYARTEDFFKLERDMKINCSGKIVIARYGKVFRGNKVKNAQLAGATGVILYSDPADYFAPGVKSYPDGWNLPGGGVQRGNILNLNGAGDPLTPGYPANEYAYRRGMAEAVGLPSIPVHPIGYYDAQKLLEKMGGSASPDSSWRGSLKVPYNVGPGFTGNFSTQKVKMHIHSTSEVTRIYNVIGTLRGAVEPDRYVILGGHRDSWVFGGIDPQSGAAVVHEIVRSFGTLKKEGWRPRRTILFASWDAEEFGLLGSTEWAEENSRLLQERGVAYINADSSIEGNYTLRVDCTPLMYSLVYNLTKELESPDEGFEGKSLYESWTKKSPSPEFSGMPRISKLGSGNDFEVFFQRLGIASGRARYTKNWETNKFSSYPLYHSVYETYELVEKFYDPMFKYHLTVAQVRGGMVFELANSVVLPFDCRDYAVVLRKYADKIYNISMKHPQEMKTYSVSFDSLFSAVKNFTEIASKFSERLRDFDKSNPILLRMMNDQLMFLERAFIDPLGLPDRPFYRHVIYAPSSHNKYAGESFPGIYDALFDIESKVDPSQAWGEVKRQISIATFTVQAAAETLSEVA

B1: PSMA01019 Anti-PSMA scFv-Fc (Fc fusion)
chain: DVQITQSPSTLSASVGDRVTITCRASKSISKYLAWYQQKPGKAPKLLIHSGSSLESGVPSRFSGSGSGTEFTLTISSLQPDDFATYYCQQHIEYPWTFGQGTKVEIKGGGGSGGGGSGGGGSGGGGSEVQLLESGGGLVQPGGSLRLSCAASGYTFTDYYIHWVRQAPGKGLEWIGSFNPYNDYTSYADSVKGRATLSVDKSKNTAYLQMNSLRAEDTAVYYCARSDGYYDAMDYWGQGTLVTVSSSEPKSSDKTHTCPPCPAPEAAGAPSVFLFPPKPKDTLMISRTPEVTCVVVDVSHEDPEVKFNWYVDGVEVHNAKTKPREEQYNSTYRVVSVLTVLHQDWLNGKEYKCAVSNKALPAPIEKTISKAKGQPREPQVYTLPPSRDELTKNQVSLTCLVKGFYPSDIAVEWESNGQPENNYKTTPPVLDSDGSFFLYSKLTVDKSRWQQGNVFSCSVMHEALHNHYTQKSLSLSPGK
notes: Monospecific, bivalent scFv-Fc, VL-VH
B2: PSMA01020 Anti-PSMA scFv-Fc (Fc fusion)
chain: B1 chain with V2I, I4M
notes: as for B1
B3: PSMA01012 Anti-PSMA scFv-Fc (Fc fusion)
chain: DIQMTQSPSAMSASVGDRVTITCRASKSISKYLAWFQQKPGKVPKLRIHSGSTLQSGVPSRFSGSGSGTEFTLTISSLQPEDFATYYCQQHIEYPWTFGQGTKVEIKRGGGGSGGGGSGGGGSQVQLVQSGAEVKKPGASVKVSCKASGYTFTDYYMHWVRQAPGQGLEWMGYFNPYNDYTRYAQKFQGRVTMTRDTSISTAYMELSSLRSDDTAVYYCARSDGYYDAMDYWGQGTTVTVSSSEPKSSDKTHTCPPCPAPEAAGAPSVFLFPPKPKDTLMISRTPEVTCVVVDVSHEDPEVKFNWYVDGVEVHNAKTKPREEQYNSTYRVVSVLTVLHQDWLNGKEYKCAVSNKALPAPIEKTISKAKGQPREPQVYTLPPSRDELTKNQVSLTCLVKGFYPSDIAVEWESNGQPENNYKTTPPVLDSDGSFFLYSKLTVDKSRWQQGNVFSCSVMHEALHNHYTQKSLSLSPGK
notes: Monospecific, bivalent scFv-Fc, scFv in VL-VH orientation; also called parent construct
B4: PSMA01023 Anti PSMA scFv-Fc (Fc fusion)
chain: DIQMTQSPSTLSASVGDRVTITCRASKSISKYLAWYQQKPGKAPKLLIHSGSSLESGVPSRFSGSGSGTEFTLTISSLQPDDFATYYCQQHIEYPWTFGQGTKVEIKGGGGSGGGGSGGGGSGGGGSQVQLVQSGAEVKKPGASVKVSCKASGYTFTDYYMHWVRQAPGQGLEWMGYFNPYNDYTRYAQKFQGRVTMTRDTSTSTVYMELSSLRSEDTAVYYCARSDGYYDAMDYWGQGTTVTVSSSEPKSSDKTHTCPPCPAPEAAGAPSVFLFPPKPKDTLMISRTPEVTCVVVDVSHEDPEVKFNWYVDGVEVHNAKTKPREEQYNSTYRVVSVLTVLHQDWLNGKEYKCAVSNKALPAPIEKTISKAKGQPREPQVYTLPPSRDELTKNQVSLTCLVKGFYPSDIAVEWESNGQPENNYKTTPPVLDSDGSFFLYSKLTVDKSRWQQGNVFSCSVMHEALHNHYTQKSLSLSPGK
notes: Monospecific, bivalent scFv-Fc, VL-VH; Contains germlining set G11
B5: PSMA01024 Anti-PSMA scFv-Fc (Fc fusion)
chain: B4 chain with I2V, M4I, Y177I, R186S
notes: as for B1
B6: PSMA01025 Anti-PSMA scFv-Fc (Fc fusion)
chain: B4 chain with Y177I, R186S
notes: as for B1
B7: PSMA01021 Anti-PSMA scFv-Fc (Fc fusion)
chain: B4 chain with I2V, M4I, T203I, V206A, E216D
notes: as for B1
B8: PSMA01026 Anti PSMA scFv-Fc; Anti CD3 scFv-Fc (bispecific antibody)
chain 1: DIQMTQSPSTLSASVGDRVTITCRASKSISKYLAWYQQKPGKAPKLLIHSGSSLESGVPSRFSGSGSGTEFTLTISSLQPDDFATYYCQQHIEYPWTFGQGTKVEIKGGGGSGGGGSGGGGSGGGGSQVQLVQSGAEVKKPGASVKVSCKASGYTFTDYYMHWVRQAPGQGLEWMGYFNPYNDYTRYAQKFQGRVTMTRDTSTSTVYMELSSLRSEDTAVYYCARSDGYYDAMDYWGQGTTVTVEPKSSDKTHTCPPCPAPPAAAPSVFLFPPKPKDTLMISRTPEVTCVVVDVSHEDPEVKFNWYVDGVEVHNAKTKPREEQYNSTYRVVSVLTVLHQDWLNGKEYKCAVSNKALPAPIEKTISKAKGQPREPQVYTLPPSRDELTKNQVSLWCLVKGFYPSDIAVEWESNGQPENNYKTTPPVLDSDGSFFLYSKLTVDKSRWQQGNVFSCSVMHEALHNHYTQKSLSLSPG
chain 2: QVQLVQSGAEVKKPGASVKVSCKASGYTFTRSTMHWVRQAPGQGLEWIGYINPSSAYTNYAQKFQGRVTLTADKSTSTAYMELSSLRSEDTAVYYCASPQVHYDYNGFPYWGQGTLVTVSSGGGGSGGGGSGGGGSGGGGSDIQMTQSPSSLSASVGDRVTITCRASSSVSYMNWYQQKPGKAPKRWIYDSSKLASGVPSRFSGSGSGTDFTLTISSLQPEDFATYYCQQWSRNPPTFGQGTKVEIKEPKSSDKTHTCPPCPAPPAAAPSVFLFPPKPKDTLMISRTPEVTCVVVDVSHEDPEVKFNWYVDGVEVHNAKTKPREEQYNSTYRVVSVLTVLHQDWLNGKEYKCAVSNKALPAPIEKTISKAKGQPREPQVYTLPPSRDELTKNQVSLSCAVKGFYPSDIAVEWESNGQPENNYKTTPPVLDSDGSFFLVSKLTVDKSRWQQGNVFSCSVMHEALHNRFTQKSLSLSPG

Residue numbers refer to the chain shown, from its start.

The target in the first experiment is T2, Full-length Human PSMA (TSC435), on cells (human, UniProt Q04609 1-750).
T2 construct: also called CHOK1SV/huPSMA; PSMA on C4-2B, 22RV1, LNCaP, MDA-PCa-2b cells
Put plainly: cell binding on CHOK1SV/humanPSMA transfectants, MSD electrochemiluminescence (ECL), SULFO-TAG goat anti-human IgG. As for the experimental part: (§1) To measure the relative binding activity of humanized PSMA-binding domain variants, constructs were tested in cell binding assays on CHOK1SV cells transfected with human or cynomolgus PSMA. The generation of CHOK1SV/huPSMA cells was described earlier; CHOK1SV/cynoPSMA cells were generated using the same method. Bivalent PSMA-binding domains variants in scFv-Fc format (constructs PSMA01019, PSMA01020, PSMA01021, PSMA01023, PSMA01024 and PSMA01025) were tested in these assays.
(§2) Binding studies on CHOK1SV transfectants were performed in live cell-based ELISA using electrochemiluminescence (Meso Scale Discovery). CHOK1SV cells were washed and seeded at 50,000 cells/well in 1× Hank's Balanced Salt Solution (HBSS) on 96-well Multi-Array High Bind plates (Meso Scale Discovery) and incubated at 37° C. for one hour. Following a blocking step in PBS buffer with 20% FBS, serial dilutions of PSMA-binding constructs (from 0.002 to 100 nM) were added in PBS buffer with 10% FBS and incubated at room temperature for one hour. Plates were washed with PBS and the specific binding levels were detected by SULFO TAG-labeled goat anti-human IgG antibody (Meso Scale Discovery #R32AJ). Following an hour incubation and wash steps, 150 μL/well surfactant free 1× Read Buffer T were added and samples were analyzed on MSD Sector Imager (Meso Scale Discovery). Resulting electrochemiluminescence (ECL) values versus concentrations were plotted and nonlinear regression analysis to determine EC50 values was performed in GraphPad Prism 7® graphing and statistics software.
Regarding B1, the response was half-maximal at 4 nM (EC50).
As for B2, the concentration giving a half-maximal response (EC50) (in general, the concentration needed to bring the measured effect to its halfway point) is 4 nM.
For the molecule B3, the EC50 is 6 nM.
B4 had an EC50 of 1 nM.
Regarding B5, the response was half-maximal at 12 nM (EC50).
Molecule B6 had an EC50 of 11 nM.
Still for that read-out and setting: in the case of B7 it was 2 nM.

A further experiment addresses T2, Full-length Human PSMA (TSC435), on …. The experiment is described as follows: flow cytometry on C4-2B cells, PE goat anti-human IgG Fc secondary, MFI (median). Background: In flow cytometry, cells or beads pass a laser one at a time.
On to B8, for which the EC50 amounted to 23 nM.

For the next experiment, the target named is T3, human CD3ε in the TCR/CD3 complex on Jurkat cells (human, UniProt P07766 23-207).
T3 construct: whole, on cells; On the cells it stands in the whole TCR/CD3 complex; also called CD3 (+) cells; CD3-expressing Jurkat cells
T3 sequence (P07766 23-207, one chain of several): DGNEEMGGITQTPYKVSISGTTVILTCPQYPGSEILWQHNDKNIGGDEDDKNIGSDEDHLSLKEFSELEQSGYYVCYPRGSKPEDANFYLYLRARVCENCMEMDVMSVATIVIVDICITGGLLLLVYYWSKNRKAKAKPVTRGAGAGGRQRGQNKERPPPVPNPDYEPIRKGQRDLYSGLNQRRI
The experiment is described as follows: flow cytometry on Jurkat cells, PE goat anti-human IgG Fc secondary, MFI (median).
In turn, B8 returned a concentration giving a half-maximal response (EC50) of 26 nM.

Another experiment deals with T4, Human PSMA ECD-AFH (TSC033), recombinant dimeric PSMA ECD (human, UniProt Q04609 44-750).
T4 construct: SEC-purified dimer; also called HuPSMA-AFH; Avi-His-Human PSMA ECD
T4 sequence (Q04609 other isoform, or with tags, fused parts or gaps): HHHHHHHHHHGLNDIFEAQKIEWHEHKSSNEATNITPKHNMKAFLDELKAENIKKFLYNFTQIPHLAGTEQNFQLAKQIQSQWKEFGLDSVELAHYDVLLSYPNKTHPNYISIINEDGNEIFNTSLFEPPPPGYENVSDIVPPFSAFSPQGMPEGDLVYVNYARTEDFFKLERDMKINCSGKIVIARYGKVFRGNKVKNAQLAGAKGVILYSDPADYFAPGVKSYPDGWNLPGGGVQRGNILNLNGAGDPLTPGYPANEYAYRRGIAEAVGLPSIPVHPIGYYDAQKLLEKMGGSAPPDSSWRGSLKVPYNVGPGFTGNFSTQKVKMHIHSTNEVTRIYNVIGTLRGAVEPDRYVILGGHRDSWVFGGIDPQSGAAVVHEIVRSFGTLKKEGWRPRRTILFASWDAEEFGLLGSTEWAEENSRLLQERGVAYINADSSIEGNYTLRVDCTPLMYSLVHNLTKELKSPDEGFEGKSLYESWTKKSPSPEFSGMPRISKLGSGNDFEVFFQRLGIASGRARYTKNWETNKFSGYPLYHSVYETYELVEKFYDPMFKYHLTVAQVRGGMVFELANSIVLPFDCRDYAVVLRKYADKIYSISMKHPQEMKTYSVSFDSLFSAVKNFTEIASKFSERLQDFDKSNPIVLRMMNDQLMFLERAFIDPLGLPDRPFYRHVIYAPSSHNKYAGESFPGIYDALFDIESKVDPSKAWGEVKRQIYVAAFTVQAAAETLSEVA
The experiment is described as follows: SPR (Biacore T200), scFv-Fc captured on anti-human IgG, dimeric PSMA ECD as analyte, 1:1 fit. As for the experimental part: Mouse anti-human IgG (GE, BR-1008-39) at 25 μg/ml in 10 mM sodium acetate pH 5.0 was immobilized at a density of ˜2,000-4,000 response units (RU) onto each flow cell of a CM5 research-grade sensor chip (GE) by standard amine coupling chemistry. Each anti-PSMA protein at approximately 40 nM in dPBS with 0.2% BSA buffer was captured in a flow cell with the immobilized anti-human IgG at a flow rate of […] for up to 30 seconds, leaving one flow cell surface unmodified as the reference. Using a multi-cycle kinetics mode, a buffer blank and […] different concentrations of ECD ranging from 1 nM to 243 nM were sequentially injected through each flow cell at 30 μL/min with association times varying from 300-600 seconds and dissociation times varying from 600-1200 seconds. Regeneration was achieved by injection of 3 M MgCl₂ at a flow rate of 30 μL/min for up to 40 seconds followed by dPBS with 0.2% BSA buffer stabilization for 1 min.
Sensorgrams obtained from kinetic SPR measurements were analyzed using the double subtraction method. The signal from the reference flow cell was subtracted from the analyte binding response obtained from flow cells with captured ligands. The buffer blank response was then subtracted from analyte binding responses and the final double-referenced data were analyzed with Biacore T200 Evaluation software (2.0, GE), globally fitting data to derive kinetic parameters. All sensorgrams were fitted using a simple one-to-one binding model.
For orientation: SPR reads the build-up and loss of mass on a sensor chip optically.
In the case of B1, the dissociation constant Kd – broadly, the equilibrium constant for the complex coming apart – was 15 nM; the dissociation rate constant (koff) (in general, the rate constant with which the complex falls apart) is 0.00019 s⁻¹; the kon (in general, the rate constant with which the complex forms) was determined as 13000 M⁻¹ s⁻¹.
As for B2, the dissociation constant Kd is 16 nM, the koff came to 0.00019 s⁻¹ and the kon is 12000 M⁻¹ s⁻¹.
As for B3, the Kd was found to be 40 nM, the koff came out at 0.0011 s⁻¹ and the kon stood at 27000 M⁻¹ s⁻¹.
As to B4, the equilibrium dissociation constant (Kd) worked out at 40 nM, the koff came out at 0.00018 s⁻¹ and the association rate constant (kon) came out at 4500 M⁻¹ s⁻¹.
Regarding B5, the Kd came to 299 nM, the koff came to 0.0026 s⁻¹ and the kon stood at 8500 M⁻¹ s⁻¹.
Consider B6, for which the Kd was determined as 271 nM, the koff is 0.011 s⁻¹ and the on-rate constant (kon) is 40000 M⁻¹ s⁻¹.
Take B7: the Kd was 18 nM, the dissociation rate constant (koff) is 0.00017 s⁻¹ and the on-rate (kon) came to 9400 M⁻¹ s⁻¹.

The target in a further experiment is T1, Full-length cynomolgus monkey PSMA …. The experiment is described as follows: cell binding on CHOK1SV/cynoPSMA transfectants, MSD electrochemiluminescence (ECL), SULFO-TAG goat anti-human IgG. As for the experimental part:
as §1, §2
B1 showed a half-maximal effective concentration (EC50) of 8 nM.
Still for that read-out and setting: in the case of B2 it was 8 nM; in that of B3, 8 nM.
For the molecule B4, it took 5 nM to reach a half-maximal effect (EC50).
B5 gave a concentration giving a half-maximal response (EC50) of 9 nM.
For B6, a half-maximal response (EC50) required 10 nM.
B7 showed an EC50 of 6 nM.

The record behind these values is patent publication US20240301086A1 (APTEVO RESEARCH AND DEVELOPMENT, published 2024).
